Experimental data taken from US20180031566A1 (VENTANA MEDICAL SYSTEMS, published 2018).

T1: recombinant protein for uPAR-Like domain 1 of C4.4a (amino acids 31-116) (human, UniProt O95274 31-116)
T1 construct: Recombinant domain used in ELISA
T1 sequence: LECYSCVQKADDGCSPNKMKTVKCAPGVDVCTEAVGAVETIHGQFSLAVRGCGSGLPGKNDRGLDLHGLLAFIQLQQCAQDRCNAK

T2: recombinant protein for uPAR-like domain 2 of C4.4a (amino acids 139-224) (human, UniProt O95274 139-224)
T2 construct: Recombinant domain used in ELISA
T2 sequence: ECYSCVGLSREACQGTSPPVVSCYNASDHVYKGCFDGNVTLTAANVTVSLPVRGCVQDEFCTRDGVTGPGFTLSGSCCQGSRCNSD


Columns and labels:
[1] = target: T1, recombinant protein for uPAR-Like …; assay: ELISA with recombinant domain proteins
[2] = target: T2, recombinant protein for uPAR-like …; assay: ELISA with recombinant domain proteins

| Binder | binding result [1] | binding result [2] |
| --- | --- | --- |
| anti-C4.4a antibody clone S20H1L1 (antibody, V domains shown, Rabbit monoclonal antibody; also called SP245 (a S20H1L1 clone)) VH: QEQLEESGGGLVKPGGTLTLTCTASGFSLISTYYICWVRQAPGKGLEWIGCIPLSHSVSWYANWVNGRFSISKTSSTTVTLKMASLTDADTATYFCGRGSSGWGVDSKLWGPGTLVTVSS VL: AVLTQTPSPVSASVGGTVTINCQSSPSVASGYLSWFQQKPGQPPKLLIYRASTLVSGVPSRFKGSGSGTHFTLTISDVQCDDAATYYCAGAYSSRSDTTFGGGTEVVVK | binds |  |
| anti-C4.4a antibody clone S42H9L5 (antibody, V domains shown, Rabbit monoclonal antibody; also called SP246 (a S42H9L5 clone)) VH: QSLEESGGRLVKPDETLTLTCTVSGFSLNTVAISWVRQAPGKGLEWIGFIHPTVNTYYARWAKGRFTISRASSTTVDLKVTSLTFEDAATYFCVRGNAHYDIWGPGTLVTVSL VL: AFELTQTPSLVSAAVGGTVTISCQSSQSVYSDNYLAWYQQKPGQRPKLLIYKASDLASGVPSRFKGSGSGTEFTLTISDLECADAATYYCQSYYGVSSDSNAFGGGTEVVVK |  | binds |
